Results from the supplement of paper PMC6755084.

B1: minF1; a variant is named by its letters at N, in order (parent)
chain: GAGACCGCAACTGAAAAGTTGTTNNNNAANNNNGGNTNNATTTCTGCACGTAGAAGCAAAAGGC

Variants of: B1
Assay: fraction ligated after 30 min (ligated reads / total reads); higher = more ligase activity
Conditions: with F1*subA RNA substrate (template-directed ligation), 42 °C
Experimental: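 Chip-synthesised pool of minF1 ligase ribozyme variants (single and double substitutions, single to quadruple deletions, bulge and P2 designed variants) was transcribed with T7 and reacted as a pool with excess substrate F1*subA for 30 min at 42 C in 50 mM EPPS pH 8.5, 25 mM MgCl2. Ligated and unligated RNAs were separated by PAGE, barcoded by RT and deep sequenced; fraction ligated = ligated reads / total reads, relative activity = FL / FL of wild-type minF1 (0.76); sequencing FL correlated with PAGE (R2 = 0.98). Sequences are the DNA template of the ribozyme.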

Variant | fraction ligated
GAGACCGCAACTGAAAAGTTGTATCAGAATGGAGGGTTGATTTCTGCACGTAGAAGCAAAAGGC [TCAGTGGAGTG T23A] | 0.00892
GAGACCGCAACTGAAAAGTTGTATCAGAATGGTGGTTGAATTTCTGCACGTAGAAGCAAAAGGC [TCAGTGGTTGA T23A] | 0.00216
GAGACCGCAACTGAAAAGTTGTTACAGAATGGGGGTTGAATTTCTGCACGTAGAAGCAAAAGGC [ACAGTGGGTGA] | 0.00475
GAGACCGCAACTGAAAAGTTGTATCAGAATGGGGGTTGAATTTCTGCACGTAGAAGCAAAAGGC [TCAGTGGGTGA T23A] | 0.0036
GAGACCGCAACTGAAAAGTTGTTACAGAATGGAGGTTGAATTTCTGCACGTAGAAGCAAAAGGC [ACAGTGGATGA] | 0.00257
GAGACCGCAACTGAAAAGTTGTTTCAGAATGGATGGGTTATTTCTGCACGTAGAAGCAAAAGGC [TCAGTGGAGTT G34T T37G] | 0.00084
GAGACCGCAACTGAAAAGTTGTTTCAGAATGTGGGTTGAATTTCTGCACGTAGAAGCAAAAGGC [TCAGTGTGTGA] | 0.00218
GAGACCGCAACTGAAAAGTTGTATCAGAATGGATGGGTTATTTCTGCACGTAGAAGCAAAAGGC [TCAGTGGAGTT T23A G34T T37G] | 0.00183
GAGACCGCAACTGAAAAGTTGTTACAGAATGGATGGTTGATTTCTGCACGTAGAAGCAAAAGGC [ACAGTGGAGTG G34T] | 0.0352
GAGACCGCAACTGAAAAGTTGTTTCGAAGGATGGGTTGAATTTCTGCACGTAGAAGCAAAAGGC [TCGAGATGTGA A29G] | 0.00245
GAGACCGCAACTGAAAAGTTGTTTCGAATGATGGGTTGAATTTCTGCACGTAGAAGCAAAAGGC [TCGAGATGTGA A29T] | 0.00243
GAGACCGCAACTGAAAAGTTGTTTCAGAATGGGGGTTGAATTTCTGCACGTAGAAGCAAAAGGC [TCAGTGGGTGA] | 0.00233
GAGACCGCAACTGAAAAGTTGTATCAGAATGTGGGTTGAATTTCTGCACGTAGAAGCAAAAGGC [TCAGTGTGTGA T23A] | 0.00289
GAGACCGCAACTGAAAAGTTGTTACAGAATGGATGGTTAATTTCTGCACGTAGAAGCAAAAGGC [ACAGTGGAGTA G34T] | 0.0155
GAGACCGCAACTGAAAAGTTGTTACAGAATGGATGGGTTATTTCTGCACGTAGAAGCAAAAGGC [ACAGTGGAGTT G34T T37G] | 0.00159
GAGACCGCAACTGAAAAGTTGTTACAGAATGGAGGGTTGATTTCTGCACGTAGAAGCAAAAGGC [ACAGTGGAGTG] | 0.00883
GAGACCGCAACTGAAAAGTTGTATCAGAATGGATGGTTAATTTCTGCACGTAGAAGCAAAAGGC [TCAGTGGAGTA T23A G34T] | 0.0212
GAGACCGCAACTGAAAAGTTGTTTCGAAAGATGGGTTGAATTTCTGCACGTAGAAGCAAAAGGC [TCGAGATGTGA] | 0.0048
GAGACCGCAACTGAAAAGTTGTATCAGAATGGAGGTTGAATTTCTGCACGTAGAAGCAAAAGGC [TCAGTGGATGA T23A] | 0.00222
GAGACCGCAACTGAAAAGTTGTTACAGAATGGTGGTTGAATTTCTGCACGTAGAAGCAAAAGGC [ACAGTGGTTGA] | 0.00127
GAGACCGCAACTGAAAAGTTGTTACAGAATGGATGGGTTGTTTCTGCACGTAGAAGCAAAAGGC [ACAGTGGAGTT G34T T37G A40G] | 0.00141

Variant | fraction ligated
GAGACCGCAACTGAAAAGTTGTATCAGAATGGATGGGTTGTTTCTGCACGTAGAAGCAAAAGGC [TCAGTGGAGTT T23A G34T T37G A40G] | 0.000501
GAGACCGCAACTGAAAAGTTGTATCAGAATGGAGGGTTAATTTCTGCACGTAGAAGCAAAAGGC [TCAGTGGAGTA T23A] | 0.00382
GAGACCGCAACTGAAAAGTTGTTTCAGAATGGATGGTTAATTTCTGCACGTAGAAGCAAAAGGC [TCAGTGGAGTA G34T] | 0.00892
GAGACCGCAACTGAAAAGTTGTTTCAGAATGGTGGGTTGATTTCTGCACGTAGAAGCAAAAGGC [TCAGTGGTGTG] | 0.00278
GAGACCGCAACTGAAAAGTTGTTTCAGAATGGTGGGTTAATTTCTGCACGTAGAAGCAAAAGGC [TCAGTGGTGTA] | 0.00201
GAGACCGCAACTGAAAAGTTGTTACGAAAGATGGGTTGAATTTCTGCACGTAGAAGCAAAAGGC [ACGAGATGTGA] | 0.00357
GAGACCGCAACTGAAAAGTTGTTTCAGAATGGTGGTTGAATTTCTGCACGTAGAAGCAAAAGGC [TCAGTGGTTGA] | 0.00261
GAGACCGCAACTGAAAAGTTGTATCAGAATGGTGGGTTGATTTCTGCACGTAGAAGCAAAAGGC [TCAGTGGTGTG T23A] | 0.00413
GAGACCGCAACTGAAAAGTTGTTACAGAATGTGGGTTGAATTTCTGCACGTAGAAGCAAAAGGC [ACAGTGTGTGA] | 0.00188
GAGACCGCAACTGAAAAGTTGTTTCAGAATGGATGGGTTGTTTCTGCACGTAGAAGCAAAAGGC [TCAGTGGAGTT G34T T37G A40G] | 0.00151
GAGACCGCAACTGAAAAGTTGTTTCAGAATGGAGGTTGAATTTCTGCACGTAGAAGCAAAAGGC [TCAGTGGATGA] | 0.00185
GAGACCGCAACTGAAAAGTTGTTTCAGAATGGAGGGTTGATTTCTGCACGTAGAAGCAAAAGGC [TCAGTGGAGTG] | 0.00572
GAGACCGCAACTGAAAAGTTGTTTCGATGGATGGGTTGAATTTCTGCACGTAGAAGCAAAAGGC [TCGAGATGTGA A28T A29G] | 0.00721
GAGACCGCAACTGAAAAGTTGTTACAGAATGGTGGGTTGATTTCTGCACGTAGAAGCAAAAGGC [ACAGTGGTGTG] | 0.00543
GAGACCGCAACTGAAAAGTTGTTACAGAATGGTGGGTTAATTTCTGCACGTAGAAGCAAAAGGC [ACAGTGGTGTA] | 0.000648
GAGACCGCAACTGAAAAGTTGTATCAGAATGGTGGGTTAATTTCTGCACGTAGAAGCAAAAGGC [TCAGTGGTGTA T23A] | 0.00153
GAGACCGCAACTGAAAAGTTGTTACGAAGGATGGGTTGAATTTCTGCACGTAGAAGCAAAAGGC [ACGAGATGTGA A29G] | 0.00268
GAGACCGCAACTGAAAAGTTGTTACGAATGATGGGTTGAATTTCTGCACGTAGAAGCAAAAGGC [ACGAGATGTGA A29T] | 0.00193
GAGACCGCAACTGAAAAGTTGTTACGATGGATGGGTTGAATTTCTGCACGTAGAAGCAAAAGGC [ACGAGATGTGA A28T A29G] | 0.00619
GAGACCGCAACTGAAAAGTTGTATCAGAATGGATGGTTGATTTCTGCACGTAGAAGCAAAAGGC [TCAGTGGAGTG T23A G34T] | 0.0406
GAGACCGCAACTGAAAAGTTGTTTCAGAATGGATGGTTGATTTCTGCACGTAGAAGCAAAAGGC [TCAGTGGAGTG G34T] | 0.0219
